Assay results from patent US20140056902A1 (Kyowa Kirin, published 2014).

Each binder was assayed against T1, human mature dimer BMP9 recombinant protein (manufactured by R&D systems, Cat#3209-BP) (human, UniProt Q9UK05 320-429) (assay: SPR (Biacore T100), antibody captured on anti-human IgG, human BMP9 (R&D 3209-BP) as analyte, 5 concentrations from 1 nM).
T1 construct: Bought protein; also called human BMP9; human BMP9 recombinant protein (manufactured by R&D systems)
T1 sequence: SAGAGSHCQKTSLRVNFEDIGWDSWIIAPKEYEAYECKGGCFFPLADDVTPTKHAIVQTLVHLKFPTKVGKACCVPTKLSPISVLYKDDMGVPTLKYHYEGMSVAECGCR
Protocol: For the purpose of comparing binding activity to human BMP9 between c10D5-2-3 antibody and 22 types of 10D5-2-3 antibody-humanized antibodies obtained in Example 22-7, binding activity to human BMP9 recombinant protein (manufactured by R&D systems) was measured by surface plasmon resonance (SPR) using a BiacoreT100 instrument (manufactured by GE Healthcare bioscience).
Anti-human IgG antibody was immobilized onto a CM5 sensor chip (manufactured by GE Healthcare bioscience) using a Human Antibody Capture Kit (manufactured by GE Healthcare bioscience) in accordance with the accompanying protocol. 0.4 μg/mL of c10D5-2-3 antibody or each humanized antibody was applied to the flow cell onto which anti-human IgG antibody was immobilized, at a flow rate of 10 μL/min for 2 minutes.
Subsequently, human BMP9 recombinant protein (manufactured by R&D systems, Cat#3209-BP) was subjected to 2-fold serial dilution starting from […] to give 5 concentrations, and applied at a flow rate of 10 μL/min, and association was monitored over 3 minutes and dissociation over 3 minutes at a flow of 10 μL/min. The sensorgram thus obtained was analyzed by BiaEvaluation Software (manufactured by GE Healthcare bioscience) to calculate the rate constant of each antibody.

Binder | Kd [nM] | koff [s⁻¹] | kon [M⁻¹ s⁻¹]
10D5-2-3 antibody-humanized antibody HV3LV2 (antibody, V domains shown, Expressed from pKANTEX93) VH: EVQLVESGGGLVQPGGSLRLSCAASGFTFSNYWMNWVRQAPGKGLEWVAHIRLKSDNYATHYAESVRGRFTISRDDSKNSLYLQMNSLKTEDTAVYYCTGGSNYVFAFWGQGTLVTVSS VL: DIVMTQSPDSLAVSLGERATINCRASESVDNYGISFMNWFQQKPGQPPKLLIYAASNQGSGVPDRFSGSGSGTDFTLTISSLQAEDVAVYFCQQSKEVPWTFGQGTKLEIK | 0.0116 | 0.000596 | 5.12e+07
10D5-2-3 antibody-humanized antibody HV3LV6 (antibody, V domains shown, Expressed from pKANTEX93) VH: EVQLVESGGGLVQPGGSLRLSCAASGFTFSNYWMNWVRQAPGKGLEWVAHIRLKSDNYATHYAESVRGRFTISRDDSKNSLYLQMNSLKTEDTAVYYCTGGSNYVFAFWGQGTLVTVSS VL: not shown | 0.0119 | 0.000555 | 4.67e+07
10D5-2-3 antibody-humanized antibody HV4bLV0 (antibody, V domains shown, Expressed from pKANTEX93) VH: EVQLVESGGGLVQPGGSLRLSCAASGFTFSNYWMNWVRQAPGKGLEWVAHIRLKSDNYATHYAESVRGRFTISRDDSKNSLYLQMNSLKTEDTAIYYCTGGSNYVFAFWGQGTLVTVSS VL: DIVMTQSPDSLAVSLGERATINCRASESVDNYGISFMNWYQQKPGQPPKLLIYAASNQGSGVPDRFSGSGSGTDFTLTISSLQAEDVAVYYCQQSKEVPWTFGQGTKLEIK | 0.0114 | 0.00164 | 1.44e+08
10D5-2-3 antibody-humanized antibody HV3LV3 (antibody, V domains shown, Expressed from pKANTEX93) VH: EVQLVESGGGLVQPGGSLRLSCAASGFTFSNYWMNWVRQAPGKGLEWVAHIRLKSDNYATHYAESVRGRFTISRDDSKNSLYLQMNSLKTEDTAVYYCTGGSNYVFAFWGQGTLVTVSS VL: DIVMTQSPDSLAVSLGERATINCRASESVDNYGISFMNWFQQKPGQPPKLLIYAASNQGSGVPDRFSGSGSGTDFTLTISPLQAEDVAVYFCQQSKEVPWTFGQGTKLEIK | 0.00949 | 0.000516 | 5.43e+07
10D5-2-3 antibody-humanized antibody HV4bLV2 (antibody, V domains shown, Expressed from pKANTEX93) VH: EVQLVESGGGLVQPGGSLRLSCAASGFTFSNYWMNWVRQAPGKGLEWVAHIRLKSDNYATHYAESVRGRFTISRDDSKNSLYLQMNSLKTEDTAIYYCTGGSNYVFAFWGQGTLVTVSS VL: DIVMTQSPDSLAVSLGERATINCRASESVDNYGISFMNWFQQKPGQPPKLLIYAASNQGSGVPDRFSGSGSGTDFTLTISSLQAEDVAVYFCQQSKEVPWTFGQGTKLEIK | 0.0109 | 0.000588 | 5.39e+07
10D5-2-3 antibody-humanized antibody HV3LV0 (antibody, V domains shown, Expressed from pKANTEX93) VH: EVQLVESGGGLVQPGGSLRLSCAASGFTFSNYWMNWVRQAPGKGLEWVAHIRLKSDNYATHYAESVRGRFTISRDDSKNSLYLQMNSLKTEDTAVYYCTGGSNYVFAFWGQGTLVTVSS VL: DIVMTQSPDSLAVSLGERATINCRASESVDNYGISFMNWYQQKPGQPPKLLIYAASNQGSGVPDRFSGSGSGTDFTLTISSLQAEDVAVYYCQQSKEVPWTFGQGTKLEIK | 0.0114 | 0.00172 | 1.51e+08
10D5-2-3 antibody-humanized antibody HV4bLV3 (antibody, V domains shown, Expressed from pKANTEX93) VH: EVQLVESGGGLVQPGGSLRLSCAASGFTFSNYWMNWVRQAPGKGLEWVAHIRLKSDNYATHYAESVRGRFTISRDDSKNSLYLQMNSLKTEDTAIYYCTGGSNYVFAFWGQGTLVTVSS VL: DIVMTQSPDSLAVSLGERATINCRASESVDNYGISFMNWFQQKPGQPPKLLIYAASNQGSGVPDRFSGSGSGTDFTLTISPLQAEDVAVYFCQQSKEVPWTFGQGTKLEIK | 0.0101 | 0.000556 | 5.5e+07
10D5-2-3 antibody-humanized antibody HV4aLV0 (antibody, V domains shown, Expressed from pKANTEX93) VH: EVQLVESRGGLVQPGGSMRLSCAASGFTFSNYWMNWVRQAPGKGLEWVGHIRLKSDNYATHYAESVRGRFTISRDDSKSSLYLQMNSLKTEDTAVYYCAGGSNYVFAFWGQGTLVTVSS VL: DIVMTQSPDSLAVSLGERATINCRASESVDNYGISFMNWYQQKPGQPPKLLIYAASNQGSGVPDRFSGSGSGTDFTLTISSLQAEDVAVYYCQQSKEVPWTFGQGTKLEIK | 0.00924 | 0.00145 | 1.57e+08
